Measurements reported in paper PMC4635490, “VP22 core domain from Herpes simplex virus 1 reveals a surprising structural conservation in both the Alpha- and Gammaherpesvirinae subfamilies” (The Journal of General Virology, 2015).

Molecular target: the molecule itself
Assay: SEC-MALS; Superdex 200 5/150 GL, 20 mM HEPES pH 7.5, 300 mM NaCl, 10 % glycerol, 2 mM TCEP; 20 µl of 6 mg/ml VP22core injected, 0.3 ml/min

B1: VP22 core domain (conserved C-terminal domain) from Herpes simplex virus 1, residues 174-281 (domain or fragment)
chain: RKLHFSTAPPNPDAPWTPRVAGFNKRVFCAAVGRLAAMHARMAAVQLWDMSRPRTDEDLNELLGITTIRVTVCEGKNLLQRANELVNPDVVQDVDAATATRGRSAASR
notes: VP22 tegument protein of Herpes simplex virus 1 (Human herpesvirus 1), GenBank BAE87004.1, residues 174-281; electron density seen for residues 174-260 plus three amino acids of the N-terminal tag; The tag was not removed: the monomer mass of 14 551 g/mol includes the purification tag and the TEV site; source: bacterial cells, purified (HisTrap HP, Superdex 75 size exclusion); not shown: His6, …
stoichiometry N: 2
